Source: publication PMC2197187 (Acta Crystallographica Section F: Structural Biology and …, 2006)

How the values were obtained:
mass spectrometry = target: the molecule itself; experiment: mass spectrometry
SEC = target: the molecule itself; experiment: SEC

B1: Sso6206, recombinant, His tag cleaved by TEV protease (natural protein, Sulfolobus solfataricus P2)
chain: GAMAIRRLVLDVLKPIRGTSIVDLAERISKLDGVEGVNISVTDMDVETMGLMIIIEGTSLNFDDIRKMLEEEGCAIHSIDEVVSGNRIIEGKIKDDL
- stoichiometry N (mass spectrometry): ≤ 6
- stoichiometry N (SEC): > 10 monomers per protomer
